The results in this text go back to patent publication US12109327B2, “Scaffolds from self-assembling tetrapeptides support 3D spreading, osteogenic differentiation and angiogenesis of mesenchymal stem cells” (KING ABDULLAH UNIVERSITY OF SCIENCE AND TECHNOLOGY, priority 2020, dated 2024).

Data set [1] in a line: Oscillatory rheological test of peptide hydrogel stiffness (storage modulus G′). The data set is classed as physicochemical. To be noted: for Storage modulus: 1 rad/s, 0.1% strain. The method, then: Therefore, in one embodiment, the mechanical stiffness of each peptide hydrogel is assessed by the storage modulus (G′) at different concentrations.
The oscillatory rheological test was performed to determine the mechanical properties of the peptide hydrogels. The peptide hydrogels were measured on a TA Ares G2 rheometer with an 8 mm parallel-plate geometry and a 1.5 mm gap distance at a temperature of 22° C. All of the hydrogels were made inside a Sigmacote®-coated glass ring with 9 mm inner diameter 19 h prior to measurement. Six replicates with a volume of 150 μL were prepared for each sample. […]

The subject of data set [2] is MSCs. As to the kind of experiment: SEM of cell-matrix interaction. The data set is classed as cell-based, human. The conditions noted are these: after 14 days of culture. The method, then:
Scale bars are 5 and 10 μm, in the left and right panels respectively.
SEM was also used to determine the cell-matrix interaction. First, the cells encapsulated in hydrogels were fixed in 2.5% glutaraldehyde for overnight (4° C.) and then washed using PBS. The samples were subsequently incubated in 1% osmium tetroxide for one hour and washed with water. Afterwards, the dehydration was done by immersing them in increasing concentrations of ethanol: 30, 50, 70, 90 and 100%, 15 min each step. Then, the samples were processed in critical point dryer. The dried samples were then mounted and coated with 5 nm Ir thickness.

The subject of data set [3] is BM-MSCs. As to the kind of experiment: Quantitative RT-PCR of osteogenic genes. The data set is classed as cell-based, human. The conditions noted are these: after 30 days of culture. The method, then: Real-time polymerase chain reaction (PCR) values of the BM-MSC gene expressions of the bone morphogenetic protein (BMP-2) (FIG. 37), bone sialoprotein 2 (IBSP) (FIG. 35), osteopontin (OPN) (FIG. 38), osterix (OSX) (FIG. 39), and RUNX2 (FIG. 36) are evaluated after 30 days of culture. […] In FIGS. 35-39, * mens p<0.05 and ** means p<0.001, indicating statistical significance.
The BM-MSCs were cultured on different scaffolds with an osteogenic medium for 4 weeks. Total RNA was extracted using the TRIzol™ reagent. RNA concentration and purity were measured using a NanoDrop® 8000 spectrophotometer (Thermo Fisher®). Complementary DNA (cDNA) was synthesized using the ImProm-II Reverse Transcription System. Primer sequences were taken from previously published studies and are summarized in below. Relative quantification was performed using the comparative CT (2-ΔΔCT) and normalized against glyceraldehyde 3-phosphate dehydrogenase (GAPDH), which was used as a housekeeping gene to calculate the fold change in gene expression. BM-MSCs on a 2D culture using basal media were used as controls.

Data set [4] can be described thus: Vial inversion test: gelation time and critical gelation concentration. The data set is classed as physicochemical. The method, then:
In one embodiment, an instant hydrogel formation can be observed when PBS buffer is added to the peptide solution. In one embodiment, the gelation time is determined using a vial inversion test performed at different peptide concentrations in 1×PBS to meet physiological conditions. FIG. 13 compares the gelation time of IVFK and IVZK at different concentration.
The lyophilized peptide powders were dissolved in Milli-Q® water by vortexing into a clear solution at room temperature. Then, 10× phosphate-buffered saline (PBS) was added to the aqueous peptide solution at a final volume ratio of peptide solution to 10×PBS of 9:1. The vial inversion test was performed with different peptide concentrations to find the critical gelation concentration (CGC). To study the spatial structure of the peptide solution during the assembly process, two-dimensional (2D) NMR was performed using Bruker Avance III 600 MHz. Furthermore, scanning electron microscopy (SEM) was performed to visualize the morphology of the self-assembled nanofibers.

Non-standard residues stand in square brackets, D forms with d. Cha = N[C@@H](CC1CCCCC1)C(=O)O

On to “Ac-Ile-Val-Cha-Lys-NH2 (Ac-IV[Cha]K-NH2; not fully specified; printed as Ac-Ile-Val-Cha-Lys-NH2) [IVZK, nonaromatic self-assembling tetrapeptide (Z = cyclohexylalanine) forming hydrogel scaffold]”, for which the “G′ value, IVZK versus IVFK” value in data set [1] (at the same concentration) was “higher G′ value compared to IVFK”. The Storage modulus was determined as 10.00 ± 0.12 kPa in data set [1] (peptide hydrogel 2 mg/mL); 17.21 ± 1.38 kPa in data set [1] (peptide hydrogel 3 mg/mL); 29.77 ± 1.19 kPa in data set [1] (peptide hydrogel 4 mg/mL); 43.03 ± 2.81 kPa in data set [1] (peptide hydrogel 6 mg/mL); 75.21 ± 4.08 kPa in data set [1] (peptide hydrogel 8 mg/mL). Besides, the “cell morphology by SEM” value in data set [2] is on record as “elongated spindlelike morphology”. For the same substance, in data set [3], the OPN gene expression entry is “downregulated”. The “critical gelation concentration (CGC)” value in data set [4] (aqueous solution, 1× PBS) is recorded as 2 mg/mL. In addition, the gelation time entry in data set [4] (different peptide concentrations in 1×PBS, IVZK versus IVFK) is given as “less time to form the hydrogel, compared to IVFK”.
